Results on eleven molecules are retold here after PMC6601351 (Structure (London, England : 1993), 2018).

A word on the Kd: it is the equilibrium constant for the complex coming apart. A higher Kd goes with weaker binding.

The chains are these.
B1: KNL1_(1–150) (domain or fragment, human, UniProt Q8NG31 1-150, looked up)
chain: MDGVSSEANEENDNIERPVRRRHSSILKPPRSPLQDLRGGNERVQESNALRNKKNSRRVSFADTIKVFQTESHMKIVRKSEMEGCSAMVPSQLQLLPPGFKRFSCLSLPETETGENLLLIQNKKLEDNYCEITGMNTLLSAPIHTQMQQK
B2: KNL1_(1–80) (domain or fragment, human, UniProt Q8NG31 1-80, looked up)
chain: MDGVSSEANEENDNIERPVRRRHSSILKPPRSPLQDLRGGNERVQESNALRNKKNSRRVSFADTIKVFQTESHMKIVRKS
B3: KNL1_(23–80) (domain or fragment, human, UniProt Q8NG31 23-80, looked up)
chain: HSSILKPPRSPLQDLRGGNERVQESNALRNKKNSRRVSFADTIKVFQTESHMKIVRKS

In the first experiment the target is PP1γ_(7–323) (human, UniProt P36873 7-323). As to the kind of experiment: ITC.
PP1γ_(7–323), sequence (P36873 7-323): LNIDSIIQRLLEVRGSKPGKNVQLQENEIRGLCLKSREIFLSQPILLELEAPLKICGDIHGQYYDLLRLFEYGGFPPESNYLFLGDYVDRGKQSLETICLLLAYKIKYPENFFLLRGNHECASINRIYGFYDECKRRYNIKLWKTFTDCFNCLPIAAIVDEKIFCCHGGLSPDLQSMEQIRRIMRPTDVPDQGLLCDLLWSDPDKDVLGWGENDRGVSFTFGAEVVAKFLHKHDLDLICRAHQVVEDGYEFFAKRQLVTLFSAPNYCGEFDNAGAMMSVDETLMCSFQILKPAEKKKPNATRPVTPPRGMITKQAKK
B1: binding was characterised by a dissociation constant (Kd) of 55.2 nM and the dH was -9.3 kcal/mol.

The molecule B2 returned a dissociation constant (Kd) of 38.3 nM and a dH of -8.6 kcal/mol.

The molecule B3 displayed a Kd of 52.4 nM and a dH of -10 kcal/mol.

The target of another experiment is PP1γ_(7–300) (human, UniProt P36873 7-300). As to the kind of experiment: ITC. Background: Isothermal titration calorimetry measures the heat released or taken up as one component is titrated into another.
PP1γ_(7–300), sequence (P36873 7-300): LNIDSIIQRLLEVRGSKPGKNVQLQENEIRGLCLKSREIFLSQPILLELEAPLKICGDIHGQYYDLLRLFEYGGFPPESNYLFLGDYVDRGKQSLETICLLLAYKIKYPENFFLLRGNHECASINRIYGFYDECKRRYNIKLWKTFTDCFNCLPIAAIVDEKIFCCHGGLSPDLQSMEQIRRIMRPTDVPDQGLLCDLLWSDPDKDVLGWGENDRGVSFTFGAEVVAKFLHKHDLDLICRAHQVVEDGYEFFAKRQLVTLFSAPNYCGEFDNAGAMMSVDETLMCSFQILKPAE
As for B3, the Kd was found to be 82 nM and the dH is -28.3 kcal/mol.

For a further experiment, the target named is PP1α_(7–330) (human) (UniProt P62136). As to the kind of experiment: ITC.
“KNL1_(1–80)S24AS25A (from UniProt Q8NG31 1-80) (domain or fragment)” had an equilibrium dissociation constant (Kd) of 93.5 nM and a dH of -21.5 kcal/mol.

The molecule “KNL1_(23–80) (from UniProt Q8NG31 23-80) (domain or fragment)” had a Kd of 89 nM and a dH of -13.7 kcal/mol.

In turn, “KNL1_(1–80)S56D (from UniProt Q8NG31 1-80) (domain or fragment)” came in with a Kd of 14.7 nM and a dH of -12.4 kcal/mol.

For the molecule “KNL1_(1–80)S24DS25D (from UniProt Q8NG31 1-80) (domain or fragment)”, the Kd amounted to 267 nM and the dH is -10.9 kcal/mol.

“KNL1_(1–80)S60A (from UniProt Q8NG31 1-80) (domain or fragment)” returned a Kd of 154 nM and a dH of -20.1 kcal/mol.

Take “KNL1_(1–80) (from UniProt Q8NG31 1-80) (domain or fragment)”: the Kd was found to be 46.4 nM and the dH is -22.6 kcal/mol.

For “KNL1_(1–80)SILK/AAAA (SILK_(dead)) (from UniProt Q8NG31 1-80) (domain or fragment)”, the equilibrium dissociation constant (Kd) is 228 nM and the dH is -21.5 kcal/mol.

Take “KNL1_(1–80)S60D (from UniProt Q8NG31 1-80) (domain or fragment)”: the Kd is 236 nM and the dH is -30.7 kcal/mol.
